Measurements from publication PMC10716096, “A scalable overexpression of a thermostable recombinant poly-histidine tag carboxyl esterase under lambda promoter: purification, characterization, and protein modelling” (Journal of Genetic Engineering & Biotechnology, 2023).

System: CCCCCCCCCCCC(=O)Oc1ccc([N+](=O)[O-])cc1
Assay: purified protein
Conditions: pH 7.4, 60 °C, substrate 10-30 mM

## EstB (6xHis carboxyl-esterase B) (Geobacillus thermoleovorans)
  Km: 22.756 mM
  kcat: 0.993 s⁻¹
